Results reported in PMC5660149, “Oligomerization and ATP stimulate condensin-mediated DNA compaction” (Scientific Reports, 2017).

Biological target: budding yeast condensin holoenzyme (heteropentamer of Smc2, Smc4, Brn1, Ycg1 and Ycs4) (budding yeast) (UniProt P38989)
Assay: SEC; Superose 6 10/300 gel filtration as the last step of purification after nickel-NTA and StrepTactin; self-association of the heteropentamer (monomer) into a multimer

Substance: budding yeast condensin holoenzyme (heteropentamer of Smc2, Smc4, Brn1, Ycg1 and Ycs4), P38989 1-1170; Q12267 1-1418; P38170 1-754; Q06680 1-1035; Q06156 1-1176
- percent multimeric in the Streptactin-purified fraction: 30%
